# Results from paper PMC9575183 (Developmental cell, 2020).
# T1: Recombinant GST-RILP wt, full length (human, UniProt Q96NA2 1-401)
# T1 sequence (looked up): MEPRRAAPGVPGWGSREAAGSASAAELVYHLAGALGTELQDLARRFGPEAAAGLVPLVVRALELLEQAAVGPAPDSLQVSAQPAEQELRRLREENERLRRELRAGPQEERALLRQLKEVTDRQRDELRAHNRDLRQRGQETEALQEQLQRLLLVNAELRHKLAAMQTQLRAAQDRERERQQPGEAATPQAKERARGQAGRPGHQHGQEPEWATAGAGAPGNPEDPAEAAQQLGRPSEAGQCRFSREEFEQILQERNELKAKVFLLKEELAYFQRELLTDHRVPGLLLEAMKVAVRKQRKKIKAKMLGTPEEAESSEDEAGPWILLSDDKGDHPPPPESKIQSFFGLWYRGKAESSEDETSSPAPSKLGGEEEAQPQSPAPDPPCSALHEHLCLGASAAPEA
# Biological target: T1, Recombinant GST-RILP wt, full length
# Assay: pull-down
binder,measurement,value
"Recombinant human His-tagged ATG5 (natural protein, UniProt Q9H1Y0 1-275, looked up) MTDDKDVLRDVWFGRIPTCFTLYQDEITEREAEPYYLLLPRVSYLTLVTDKVKKHFQKVMRQEDISEIWFEYEGTPLKWHYPIGLLFDLLASSSALPWNITVHFKSFPEKDLLHCPSKDAIEAHFMSCMKEADALKHKSQVINEMQKKDHKQLWMGLQNDRFDQFWAINRKLMEYPAEENGFRYIPFRIYQTTTERPFIQKLFRPVAADGQLHTLGDLLKEVCPSAIDPEDGEKKNQVMIHGIEPMLETPLQWLSEHLSYPDNFLHISIIPQPTD",binding result,binds
